Experimental data taken from article PMC9886983, “Mechanism of regulation of the Helicobacter pylori Cagβ ATPase by CagZ” (Nature Communications, 2023).

Legend:
[1] = target: T1, Cagβ1 (soluble region of Cagβ, residues 166-748) (Helicobacter pylori 26695, UniProt O25260 166-748); assay: ITC; ITC-200, 25 °C, 20 mM Tris pH 8.0, 150 mM NaCl; Cagβ proteins (20 µM) in the cell, CagZ proteins (200 µM) in the syringe; conditions: both partners purified
T1 construct: Cagβ (HP0524, Cag5; VirD4 homolog) of Helicobacter pylori 26695, residues 166-748, soluble region without the transmembrane region; also called Cagβ1(166-748); Cagβ-WT; source: E. coli BL21 star (DE3), purified (Ni-NTA, TEV, second Ni-NTA, SEC); not shown: His6, N-terminal, cleaved; TrxA, N-terminal, cleaved
T1 sequence: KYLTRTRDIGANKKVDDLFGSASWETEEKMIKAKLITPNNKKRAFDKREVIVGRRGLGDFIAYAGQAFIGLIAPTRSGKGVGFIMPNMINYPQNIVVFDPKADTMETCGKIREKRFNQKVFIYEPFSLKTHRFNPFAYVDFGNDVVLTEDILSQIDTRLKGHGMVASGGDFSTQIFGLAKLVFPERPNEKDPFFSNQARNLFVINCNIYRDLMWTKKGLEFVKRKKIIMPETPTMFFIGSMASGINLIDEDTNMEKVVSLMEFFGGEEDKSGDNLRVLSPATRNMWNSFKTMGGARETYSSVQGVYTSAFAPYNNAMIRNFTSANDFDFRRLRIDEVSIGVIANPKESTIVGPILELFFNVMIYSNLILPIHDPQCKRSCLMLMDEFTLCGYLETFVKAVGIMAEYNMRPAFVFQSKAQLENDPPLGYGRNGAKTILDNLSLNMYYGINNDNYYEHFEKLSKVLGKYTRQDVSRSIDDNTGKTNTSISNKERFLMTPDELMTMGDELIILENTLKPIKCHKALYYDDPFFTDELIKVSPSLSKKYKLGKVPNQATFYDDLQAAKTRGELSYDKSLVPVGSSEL

Cagβ2 (residues 243-748) = target: T2, Cagβ2 (residues 243-748) (Helicobacter pylori 26695, UniProt O25260 243-748); assay: as above; conditions: both partners purified
T2 construct: Cagβ (HP0524, Cag5) of Helicobacter pylori 26695, residues 243-748; also called Cagβ2 (243-748); source: E. coli BL21 star (DE3), purified (Ni-NTA, TEV, second Ni-NTA, SEC); not shown: His6, N-terminal, cleaved; TrxA, N-terminal, cleaved
T2 sequence: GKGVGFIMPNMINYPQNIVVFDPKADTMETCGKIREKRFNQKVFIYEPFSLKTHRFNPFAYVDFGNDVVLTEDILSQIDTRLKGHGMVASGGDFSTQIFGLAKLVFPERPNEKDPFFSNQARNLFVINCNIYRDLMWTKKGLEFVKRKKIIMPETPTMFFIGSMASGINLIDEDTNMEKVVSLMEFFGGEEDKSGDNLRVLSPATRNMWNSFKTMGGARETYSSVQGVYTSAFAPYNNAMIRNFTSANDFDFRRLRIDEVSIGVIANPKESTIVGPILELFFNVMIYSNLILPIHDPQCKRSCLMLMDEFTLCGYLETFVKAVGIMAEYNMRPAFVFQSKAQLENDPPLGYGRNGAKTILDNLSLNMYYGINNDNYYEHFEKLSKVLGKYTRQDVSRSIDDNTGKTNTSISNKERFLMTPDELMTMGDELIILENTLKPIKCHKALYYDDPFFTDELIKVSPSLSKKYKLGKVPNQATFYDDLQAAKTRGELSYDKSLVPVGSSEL

[2] = target: T3, Cagβ-AAD2 (residues 289-505) (Helicobacter pylori 26695, UniProt O25260 289-505); assay: as above; conditions: both partners purified
T3 construct: Cagβ (HP0524, Cag5) of Helicobacter pylori 26695, residues 289-505, holds the all-alpha domain (AAD); also called Cagβ-AAD2 (289-505); source: E. coli BL21 star (DE3), purified (Ni-NTA, TEV, second Ni-NTA, SEC); not shown: His6, N-terminal, cleaved; TrxA, N-terminal, cleaved
T3 sequence: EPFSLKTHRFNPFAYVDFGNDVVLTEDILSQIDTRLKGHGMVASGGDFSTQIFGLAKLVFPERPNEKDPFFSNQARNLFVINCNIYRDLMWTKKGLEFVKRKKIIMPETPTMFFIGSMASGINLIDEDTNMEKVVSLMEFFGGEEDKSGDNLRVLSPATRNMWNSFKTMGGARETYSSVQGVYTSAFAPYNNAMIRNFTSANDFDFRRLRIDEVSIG

[3] = target: T4, Cagβ-AAD1 (residues 289-488) E396A (Helicobacter pylori 26695, UniProt O25260 289-488, E396A); assay: as above; conditions: both partners purified
T4 construct: Cagβ (HP0524, Cag5) of Helicobacter pylori 26695, residues 289-488, with E396A; also called Cagβ-AAD1_E396A; source: E. coli BL21 star (DE3), purified as the wild type but without TEV protease treatment; not shown: His6, N-terminal, kept; TrxA, N-terminal, kept
T4 sequence: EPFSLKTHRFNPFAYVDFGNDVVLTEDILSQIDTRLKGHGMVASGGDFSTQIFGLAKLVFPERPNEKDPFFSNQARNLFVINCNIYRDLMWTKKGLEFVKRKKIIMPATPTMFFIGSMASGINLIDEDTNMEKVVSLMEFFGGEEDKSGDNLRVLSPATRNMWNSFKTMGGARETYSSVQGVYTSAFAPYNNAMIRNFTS

[4] = target: the molecule itself; assay: crystal structure; apo-Cagβ1, 2.8 Å; crystals from 35% PEG400, 0.2 M Li2SO4, 0.1 M Tris 8.5 at 285 K; six protomers in the asymmetric unit

B1: CagZ (residues 2-199), wild type (natural protein)
chain: ELGFNETERQKILDSNKSLMGNANEVRDKFIQNYASSLKDSNDPQDFLRRVQELRINMQKNFISFDVYYNYLNNLVLASYNRCKQEKTFAESTIKNELTLGEFVAEISDNFNNFMCDEVARISDLVASYLPREYLPPFIDGNMMGVAFQILGIDDFGRKLNEIVQDIGTKYIILSKNKTYLTSLERAKLITQLKLNLE
notes: CagZ of Helicobacter pylori 26695, residues 2-199; also called CagZ-WT; source: E. coli BL21 star (DE3), purified (Ni-NTA, TEV, second Ni-NTA, SEC); not shown: His6, N-terminal, cleaved; TrxA, N-terminal, cleaved
What does the source list for B1?
Kd [1]: 50 nM; Kd (Cagβ2 (residues 243-748)): 20 nM; Kd [2]: 20 nM; Kd [3]: ~50 nM

B2: Cagβ1 (soluble region of Cagβ, residues 166–748) (domain or fragment)
chain: T1 sequence
notes: Cagβ (HP0524, Cag5; VirD4 homolog) of H. pylori 26695, residues 166-748, the soluble (cytosolic) region; Dynamic hexamer; monomer at low concentration; also called apo-Cagβ1; HP0524; source: E. coli BL21 star (DE3), purified (Ni-NTA, TEV cleavage, second Ni-NTA, SEC); also co-expressed with CagZ-pET-28a and co-purified; not shown: His6, N-terminal, cleaved; TrxA, N-terminal, cleaved
B2 was tested. Which “stoichiometry N” value [4] did it give?
The value was 6.
